Experimental data as given in doi:10.1101/2024.10.10.617615.

Biological target: SpyCatcher003
Test: gel shift assay of isopeptide ligation

fold change of ligation rate against Oxo (slower) [fold] | fold change of ligation rate against Val^S3 (slower) [fold] | Substance | fold change of ligation rate against Oxo (faster) [fold]
5.4 |  | SpyTag003 Ile^S6 thioamide variant (peptide) | 
1.2 | 2 | SpyTag003 Val^S3-Pro^S4 dual thioamide peptide | 

Second part, the substance before the results:

Substance | fold change of ligation rate against Oxo (slower) [fold] | fold change of ligation rate against Val^S3 (slower) [fold] | fold change of ligation rate against Oxo (faster) [fold]
SpyTag003 Val^S3 thioamide variant (peptide) |  |  | 1.8
SpyTag003 Val^S7 thioamide variant (peptide) |  |  | 1.4
SpyTag003 Ala^S11 thioamide variant (peptide) | 38 |  | 
SpyTag003 Val^S9 thioamide variant (peptide) | 1.6 |  | 
SpyTag003 Met^S8 thioamide variant (peptide) | > 2000 |  | 
